Results: article PMC4909234

Target: human complement factor H (CFH) (human) (UniProt P08603)
Test: ELISA; […] (20 mM HEPES, 50 mM NaCl, pH 7.4) […]

Chain of human complement factor H (CFH) (human) (P08603 19-1231): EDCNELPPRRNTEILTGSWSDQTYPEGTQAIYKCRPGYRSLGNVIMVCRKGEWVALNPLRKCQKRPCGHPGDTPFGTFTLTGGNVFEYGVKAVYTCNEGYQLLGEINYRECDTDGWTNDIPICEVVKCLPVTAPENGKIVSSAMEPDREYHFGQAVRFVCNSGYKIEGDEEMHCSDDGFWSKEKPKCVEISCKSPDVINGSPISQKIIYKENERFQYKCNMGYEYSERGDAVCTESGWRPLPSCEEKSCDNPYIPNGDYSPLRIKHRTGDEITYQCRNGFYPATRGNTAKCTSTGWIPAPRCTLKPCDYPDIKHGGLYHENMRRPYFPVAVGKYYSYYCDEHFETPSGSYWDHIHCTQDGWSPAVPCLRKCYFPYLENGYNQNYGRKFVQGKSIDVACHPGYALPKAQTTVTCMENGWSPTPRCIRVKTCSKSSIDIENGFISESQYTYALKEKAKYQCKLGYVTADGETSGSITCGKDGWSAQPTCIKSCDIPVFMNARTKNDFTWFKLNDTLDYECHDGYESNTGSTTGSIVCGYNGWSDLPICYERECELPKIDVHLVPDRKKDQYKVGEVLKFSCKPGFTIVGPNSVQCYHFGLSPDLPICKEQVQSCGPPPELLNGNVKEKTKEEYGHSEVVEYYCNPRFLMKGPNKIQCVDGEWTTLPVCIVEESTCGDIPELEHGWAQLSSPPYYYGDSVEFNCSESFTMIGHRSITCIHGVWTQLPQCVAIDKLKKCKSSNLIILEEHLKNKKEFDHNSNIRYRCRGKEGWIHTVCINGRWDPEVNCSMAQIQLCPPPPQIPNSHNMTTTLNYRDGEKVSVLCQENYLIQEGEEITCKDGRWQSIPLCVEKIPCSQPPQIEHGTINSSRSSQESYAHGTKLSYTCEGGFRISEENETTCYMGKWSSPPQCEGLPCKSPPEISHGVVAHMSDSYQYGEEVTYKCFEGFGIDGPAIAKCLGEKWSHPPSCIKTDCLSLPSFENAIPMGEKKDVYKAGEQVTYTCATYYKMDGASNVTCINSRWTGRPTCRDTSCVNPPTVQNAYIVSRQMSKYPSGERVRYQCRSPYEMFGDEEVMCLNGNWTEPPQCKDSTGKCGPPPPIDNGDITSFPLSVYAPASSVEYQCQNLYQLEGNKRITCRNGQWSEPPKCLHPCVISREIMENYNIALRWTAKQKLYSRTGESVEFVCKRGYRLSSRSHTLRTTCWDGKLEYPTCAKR

Recombinant BclA protein (rBclA), His-tagged (from UniProt Q81JD7 1-382) (natural protein)
Kd: 0.91 µM
